Source: the supplement of paper PMC10126150
± gives the standard deviation of the averaged measurements.

Tested on: ATP
Experiment: switch fluorescence ratio, 500 uM ATP over buffer (Cy3 cluster intensity, sum of 5 cycles each) (fold (ratio)); higher = stronger signal-on switching upon ATP binding; sequences stand for … in TCGTCGGCAGCGTCAGATGTGTATAAGAGACAGTTTTTTTTTTTTTTTTTTTTTTTTT…TC
Conditions: aptamer strand: ATP DNA aptamer (quencher-CACCTGGGGGAGTATTGCGGAGGAAGG + anchor), 100 nM annealed; ATP concentration: 500 uM
Method in brief: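 After annealing to 100 nM quencher-labelled ATP aptamer, Cy3-labelled switching-strand clusters on a modified Illumina MiSeq flow-cell were imaged in selection buffer. A second image followed after 15 min with 500 uM ATP at 22 °C, and five such buffer/ATP cycles were done, each separated by NaOH stripping and re-annealing. The fluorescence ratio, averaged per switch-domain sequence, is summed target-cycle over summed buffer-cycle Cy3 intensity per cluster, with clusters outside 100-1000 RFU excluded.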
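Also: ATP exposure 15 min at 22 °C before imaging.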

Row | Sequence | switch fluorescence ratio
1 | GCACGTGCAG | 0.9955 ± 0.0041
2 | GAGAGAATGG | 0.994 ± 0.0043
3 | TTTGAGAATT | 1.01 ± 0.032
4 | TTATTTTCAT | 1 ± 0.025
5 | ACGGTCTGGA | 1 ± 0.041
6 | CAAGGATTTA | 1.02 ± 0.044
7 | GATTGCATGA | 0.996 ± 0.024
8 | ATTTTTGCTT | 0.994 ± 0.019
9 | TGTGAGAGTT | 0.9826 ± 0.0098
10 | CGGCATTAAA | 0.995 ± 0.0058
11 | CTCGGGGGGA | 1.01 ± 0.018
12 | TTGCTATCTT | 0.983 ± 0.052
13 | CAGCGAGTCC | 1.067 ± 0.0012
14 | CGTATGCCGA | 0.961 ± 0.016
15 | ATATGAATA | 0.9987 ± 0.0037
16 | AAGTTTTTTG | 0.989 ± 0.013
17 | TCTATGACAA | 1.01 ± 0.039
18 | TGATGCACGG | 1.04 ± 0.021
19 | ATTTGTTTTC | 0.953 ± 0.013
20 | GGTTTGCTAG | 1.04 ± 0.072
21 | GTGGTCGGGA | 1.09 ± 0.15
22 | GATAGCTTAG | 0.9935 ± 0.0071
23 | CGAGTCGCGA | 1.04 ± 0.062

Row | Sequence | switch fluorescence ratio
24 | CATTCCGGGA | 1.63 ± 0.72
25 | GGGGCTCTAA | 1.01 ± 0.038
26 | TATGAACCGT | 0.984 ± 0.052
27 | TACGCTTAGC | 1.1 ± 0.031
28 | GTTTAGAGCG | 1.026 ± 0.01
29 | TCATGATTTT | 0.9992 ± 0.0048
30 | ATAGAATCAA | 1.02 ± 0.022
31 | GGGGCAAAGA | 1.02 ± 0.027
32 | AAAGTTTCTC | 1 ± 0.032
33 | CGGACGTTGG | 0.973 ± 0.045
34 | AGTTGCGTAG | 0.989 ± 0.021
35 | TCGGGCGG | 1.03 ± 0.014
36 | ATTGTGGGCC | 0.975 ± 0.023
37 | TAGGTTGAAT | 0.984 ± 0.019
38 | TAATAAGTTT | 1.0262 ± 0.00033
39 | CAGCAGGCGT | 1.03 ± 0.021
40 | TTACCCGTCA | 1.06 ± 0.044
41 | CAAATAACGT | 0.9893 ± 0.0097
42 | CATGAGGGAG | 0.996 ± 0.019
43 | GTACTTGGTC | 1.03 ± 0.048
44 | CAAGGGTGTG | 0.988 ± 0.012
45 | ATTTTCGGTT | 0.997 ± 0.034
46 | AACGCGCGCC | 1.01 ± 0.05

Row | Sequence | switch fluorescence ratio
47 | TAAATTGCGG | 0.966 ± 0.013
48 | GGGGTTGTTG | 0.988 ± 0.035
49 | GGTGGGTGTT | 0.951 ± 0.017
50 | TGAGGGACAT | 1.02 ± 0.046
51 | CGGTTTCAAG | 0.972 ± 0.042
52 | GCCTTGCCTT | 1.03 ± 0.013
53 | ATCTGTCTAT | 0.98 ± 0.026
54 | TAAGCATGGA | 1.04 ± 0.013
55 | CGTGGATTTA | 0.983 ± 0.011
56 | TAAGTATAAT | 0.999 ± 0.017
57 | GTTATTTAGT | 0.967 ± 0.05
58 | TGAACGAGGG | 1.01 ± 0.022
59 | ACTTCATGGG | 1.01 ± 0.029
60 | CAGGGCGTTC | 0.9856 ± 0.0044
61 | ACGGGAGACC | 1.02 ± 0.018
62 | TTGTAGGTTT | 1.58 ± 0.79
63 | GCTCCTGACT | 1.15 ± 0.026
64 | AGGGAGAGCC | 0.9957 ± 0.0041
65 | ACTGGGCATG | 1.01 ± 0.032
66 | TATTAATTCG | 1.01 ± 0.032
67 | TGTTTTTAGA | 1.01 ± 0.019
68 | ACTAATGTTT | 0.994 ± 0.036
69 | GAGGTAAGAT | 1.02 ± 0.032

Row | Sequence | switch fluorescence ratio
70 | TTCGGTGAAG | 1.01 ± 0.0051
71 | GGACTTGGGT | 0.9702 ± 0.0082
72 | CGGTAGTTTT | 0.99 ± 0.014
73 | GGAAGATTTT | 0.989 ± 0.058
74 | TCGGTAGGTG | 1.028 ± 0.0052
75 | AGTCAGAGTA | 0.9821 ± 0.004
76 | TTGGTTTGGT | 0.988 ± 0.03
77 | TTAATATGCT | 0.997 ± 0.049
78 | AAAATAAGGT | 0.969 ± 0.043
79 | ACGTAGTAAC | 1.03 ± 0.022
80 | GGGGTCTAAA | 1.009 ± 0.0063
81 | GGGTAGGGAA | 0.998 ± 0.016
82 | ATCGGCATTT | 1.027 ± 0.0084
83 | AGCAGGGGTG | 1.09 ± 0.013
84 | TCTATGGGGT | 1 ± 0.019
85 | ACCAGGTATG | 1.12 ± 0.016
86 | GGCCGTAATG | 1.09 ± 0.019
87 | GGTAGTCCGT | 1.03 ± 0.016
88 | ATATTATGAT | 0.985 ± 0.03
89 | ATGTATGTGC | 0.997 ± 0.041
90 | GCGTAAAGAT | 0.992 ± 0.034
91 | ATATGGTGCT | 1.004 ± 0.0074
92 | GTTGTGGCGG | 0.97 ± 0.021

Row | Sequence | switch fluorescence ratio
93 | AAGTCGCATT | 1.03 ± 0.014
94 | GGGACTTGGG | 0.998 ± 0.037
95 | TTAAAGATTT | 1.07 ± 0.098
96 | AGCCTTTACA | 0.994 ± 0.011
97 | GTTGTGTATT | 0.998 ± 0.022
98 | CCTTTGTTAT | 1.052 ± 0.0082
99 | ATTGTTGGGG | 0.967 ± 0.025
100 | CTAAAGTACT | 1.11 ± 0.041
101 | TTTTTCTGGA | 0.993 ± 0.021
102 | CTCTGAGGAG | 1.04 ± 0.035
103 | CTATACGGAG | 1.09 ± 0.13
104 | ATCGAGAACG | 0.993 ± 0.014
105 | ATGCTGGGTA | 0.997 ± 0.026
106 | ACGGTGGACT | 1 ± 0.035
107 | GTATAATGAT | 0.977 ± 0.03
108 | TTTAATGTCC | 0.976 ± 0.07
109 | TCGTGTCGG | 0.98 ± 0.021
110 | CTAGGCCTGG | 1.013 ± 0.0081
111 | TATCTGTGCC | 0.96 ± 0.054
112 | GCGGGGCGGG | 1.02 ± 0.017
113 | AAAAGCGCT | 0.999 ± 0.025
114 | TTTTTAGCTT | 1.04 ± 0.028
115 | CGCCCTCAAG | 1.03 ± 0.029

Row | Sequence | switch fluorescence ratio
116 | CGGCAAATAG | 2.52 ± 0.3
117 | GGCGACACGT | 1.03 ± 0.023
118 | CGGATGGCGA | 1.03 ± 0.021
119 | GGAATTACTT | 0.987 ± 0.031
120 | AGAGAATGCG | 1.02 ± 0.049
121 | CGTGACCTTT | 1.02 ± 0.048
122 | GCATATGTCG | 1.097 ± 0.0042
123 | GCAGTATGCT | 1.01 ± 0.062
124 | TTAAATGTTT | 0.994 ± 0.015
125 | TCCCGGGGGG | 1.14 ± 0.26
126 | TTGATATAAT | 0.981 ± 0.014
127 | GTGTCGTTTG | 1 ± 0.032
128 | GAAGGCGGAT | 1.01 ± 0.018
129 | TTTAAGCTGT | 0.978 ± 0.049
130 | TTACGGTAAC | 2.05 ± 1.1
131 | TATAAGCACG | 1.096 ± 0.0066
132 | GATCTTATCG | 0.984 ± 0.026
133 | GTGGTAATGG | 0.953 ± 0.021
134 | TTTAGTCACT | 1.03 ± 0.022
135 | TATCAGAGGA | 1.04 ± 0.013
136 | TTTGATTGTT | 0.97 ± 0.043
137 | AAGGAGAGTG | 0.991 ± 0.028
138 | TTCATTGTTA | 1.03 ± 0.049

Row | Sequence | switch fluorescence ratio
139 | ATCAAAAGAT | 0.9811 ± 0.0085
140 | TTGGTTTTCT | 0.994 ± 0.045
141 | ATTTTTTTTG | 0.987 ± 0.023
142 | CCAAATTGGG | 1.016 ± 0.0048
143 | TGCATTAATT | 0.992 ± 0.019
144 | GCGAAAAGGG | 1.024 ± 0.0069
145 | TGGGGGAGAG | 1.01 ± 0.03
146 | CGGTATGGGG | 1 ± 0.029
147 | TTAGTGGGGG | 0.998 ± 0.029
148 | GAGGAACCTG | 1.09 ± 0.0052
149 | ATCCTTTGTG | 1.02 ± 0.053
150 | ATTGTTTGGG | 1.03 ± 0.019
151 | ACTGGGGGCT | 0.975 ± 0.0098
152 | AGTGACACCT | 1.15 ± 0.054
153 | GGTATTCATG | 1.01 ± 0.011
154 | GATTAAATTA | 1.01 ± 0.021
155 | TGGATCGTAG | 0.978 ± 0.011
156 | GTTTGGGTTG | 0.989 ± 0.019
157 | GGGGGGGGGC | 1.03 ± 0.098
